Experimental data from publication PMC10786891, “Massively parallel profiling of RNA-targeting CRISPR-Cas13d”.

Biological target: T1, EsCas13d, nuclease-dead (Eubacterium siraeum, UniProt B0MS50, R295A;H300A;R849A;H854A)
T1 sequence: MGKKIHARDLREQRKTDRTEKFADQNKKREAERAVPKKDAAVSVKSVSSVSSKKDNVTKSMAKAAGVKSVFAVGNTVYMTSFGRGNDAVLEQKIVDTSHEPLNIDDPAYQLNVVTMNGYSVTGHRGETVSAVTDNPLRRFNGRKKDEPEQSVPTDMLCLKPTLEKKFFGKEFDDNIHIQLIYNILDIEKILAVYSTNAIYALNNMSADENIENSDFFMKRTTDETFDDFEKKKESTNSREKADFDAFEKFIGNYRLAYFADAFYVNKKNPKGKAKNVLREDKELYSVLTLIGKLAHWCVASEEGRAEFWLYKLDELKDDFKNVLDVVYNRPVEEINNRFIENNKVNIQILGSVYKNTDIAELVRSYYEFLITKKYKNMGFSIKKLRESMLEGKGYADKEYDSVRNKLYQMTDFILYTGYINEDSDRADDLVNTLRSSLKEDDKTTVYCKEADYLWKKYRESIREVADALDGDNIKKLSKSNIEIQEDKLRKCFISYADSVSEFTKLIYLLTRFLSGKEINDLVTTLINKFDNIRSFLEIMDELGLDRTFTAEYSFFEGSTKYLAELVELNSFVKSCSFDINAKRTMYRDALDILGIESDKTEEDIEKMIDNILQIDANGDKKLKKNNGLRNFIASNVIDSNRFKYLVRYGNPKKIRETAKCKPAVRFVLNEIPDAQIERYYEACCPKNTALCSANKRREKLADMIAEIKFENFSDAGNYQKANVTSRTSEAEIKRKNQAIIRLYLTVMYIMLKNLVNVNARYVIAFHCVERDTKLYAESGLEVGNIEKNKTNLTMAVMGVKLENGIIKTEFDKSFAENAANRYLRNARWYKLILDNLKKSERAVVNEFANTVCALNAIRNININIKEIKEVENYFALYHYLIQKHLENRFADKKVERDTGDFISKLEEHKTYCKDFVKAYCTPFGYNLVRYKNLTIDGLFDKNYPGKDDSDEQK
Experiment: crRNA (strand 1, pre-loaded); Mg2+; 40 mM Tris-HCl pH 7.5, 150 mM NaCl, 6 mM MgCl2, 1 mM DTT, 0.1% Tween-20, 0.2 mg/ml BSA; 25 C; 10 min per concentration, then washed
Conditions: tags: His6-TwinStrep-SUMO cleaved; N-terminal SNAP kept (SNAP-Surface 488); label: 3' end held by stalled T7 RNA polymerase

B1: target 1 A1U,C7A (mixed)
RNA 1: CACCCGUGCAAAAAUGCAGGGGUCUAAAACUGAGCGGAUAACCUCUCUAUGG
RNA 2: GGGAAUGGAUCCACAUCUACGAAUUCGUACCAUAGAGAGGUUAUACGCUCUCCGAGAUCGGAAGAGCACACGU
Kd: 9.4 ± 1 nM

B2: target 1 insG 3' of 19,insG 3' of 4 (mixed)
RNA 1: CACCCGUGCAAAAAUGCAGGGGUCUAAAACUGAGCGGAUAACCUCUCUAUGG
RNA 2: GGGAAUGGAUCCACAUCUACGAAUUCGUACCAUGAGAGAGGUUAUCCGCGUCACCGAGAUCGGAAGAGCACACGU
Kd: 34.6 ± 1.9 nM

B3: target 1 U10G,C21U (mixed)
RNA 1: CACCCGUGCAAAAAUGCAGGGGUCUAAAACUGAGCGGAUAACCUCUCUAUGG
RNA 2: GGGAAUGGAUCCACAUCUACGAAUUCGUACUAUAGAGAGGUGAUCCGCUCACCGAGAUCGGAAGAGCACACGU
Kd: 11.7 ± 0.8 nM

B4: target 1 C7A,G15U (mixed)
RNA 1: CACCCGUGCAAAAAUGCAGGGGUCUAAAACUGAGCGGAUAACCUCUCUAUGG
RNA 2: GGGAAUGGAUCCACAUCUACGAAUUCGUACCAUAGAUAGGUUAUACGCUCACCGAGAUCGGAAGAGCACACGU
Kd: 19.6 ± 2.1 nM

B5: target 1 A14C,G15U (mixed)
RNA 1: CACCCGUGCAAAAAUGCAGGGGUCUAAAACUGAGCGGAUAACCUCUCUAUGG
RNA 2: GGGAAUGGAUCCACAUCUACGAAUUCGUACCAUAGAUCGGUUAUCCGCUCACCGAGAUCGGAAGAGCACACGU
Kd: 35 ± 6 nM

B6: target 1 C2U,A14G (mixed)
RNA 1: CACCCGUGCAAAAAUGCAGGGGUCUAAAACUGAGCGGAUAACCUCUCUAUGG
RNA 2: GGGAAUGGAUCCACAUCUACGAAUUCGUACCAUAGAGGGGUUAUCCGCUUACCGAGAUCGGAAGAGCACACGU
Kd: 15 ± 0.7 nM

B7: target 1 insC 3' of 5,insC 3' of 5 (mixed)
RNA 1: CACCCGUGCAAAAAUGCAGGGGUCUAAAACUGAGCGGAUAACCUCUCUAUGG
RNA 2: GGGAAUGGAUCCACAUCUACGAAUUCGUACCAUAGAGAGGUUAUCCGCCCUCACCGAGAUCGGAAGAGCACACGU
Kd: 25.7 ± 3.2 nM

B8: target 1 del9,del19 (mixed)
RNA 1: CACCCGUGCAAAAAUGCAGGGGUCUAAAACUGAGCGGAUAACCUCUCUAUGG
RNA 2: GGGAAUGGAUCCACAUCUACGAAUUCGUACCAAGAGAGGUUUCCGCUCACCGAGAUCGGAAGAGCACACGU
Kd: 86 ± 33 nM

B9: target 1 insC 3' of 13,insA 3' of 10 (mixed)
RNA 1: CACCCGUGCAAAAAUGCAGGGGUCUAAAACUGAGCGGAUAACCUCUCUAUGG
RNA 2: GGGAAUGGAUCCACAUCUACGAAUUCGUACCAUAGAGAGCGUUAAUCCGCUCACCGAGAUCGGAAGAGCACACGU
Kd: 12.7 ± 0.6 nM

B10: target 1 insA 3' of 22,insG 3' of 14 (mixed)
RNA 1: CACCCGUGCAAAAAUGCAGGGGUCUAAAACUGAGCGGAUAACCUCUCUAUGG
RNA 2: GGGAAUGGAUCCACAUCUACGAAUUCGUACACAUAGAGAGGGUUAUCCGCUCACCGAGAUCGGAAGAGCACACGU
Kd: 21.7 ± 3.2 nM

B11: target 1 insU 3' of 14,insA 3' of 2 (mixed)
RNA 1: CACCCGUGCAAAAAUGCAGGGGUCUAAAACUGAGCGGAUAACCUCUCUAUGG
RNA 2: GGGAAUGGAUCCACAUCUACGAAUUCGUACCAUAGAGAUGGUUAUCCGCUCAACCGAGAUCGGAAGAGCACACGU
Kd: 43 ± 6 nM

B12: target 1 insG 3' of 19,insU 3' of 6 (mixed)
RNA 1: CACCCGUGCAAAAAUGCAGGGGUCUAAAACUGAGCGGAUAACCUCUCUAUGG
RNA 2: GGGAAUGGAUCCACAUCUACGAAUUCGUACCAUGAGAGAGGUUAUCCUGCUCACCGAGAUCGGAAGAGCACACGU
Kd: 82 ± 9 nM

B13: target 1 insU 3' of 21,insC 3' of 15 (mixed)
RNA 1: CACCCGUGCAAAAAUGCAGGGGUCUAAAACUGAGCGGAUAACCUCUCUAUGG
RNA 2: GGGAAUGGAUCCACAUCUACGAAUUCGUACCUAUAGAGCAGGUUAUCCGCUCACCGAGAUCGGAAGAGCACACGU
Kd: 55 ± 7 nM

B14: target 1 C6G,C7A (mixed)
RNA 1: CACCCGUGCAAAAAUGCAGGGGUCUAAAACUGAGCGGAUAACCUCUCUAUGG
RNA 2: GGGAAUGGAUCCACAUCUACGAAUUCGUACCAUAGAGAGGUUAUAGGCUCACCGAGAUCGGAAGAGCACACGU
Kd: 8.9 ± 0.4 nM

B15: target 1 insG 3' of 19,insG 3' of 14 (mixed)
RNA 1: CACCCGUGCAAAAAUGCAGGGGUCUAAAACUGAGCGGAUAACCUCUCUAUGG
RNA 2: GGGAAUGGAUCCACAUCUACGAAUUCGUACCAUGAGAGAGGGUUAUCCGCUCACCGAGAUCGGAAGAGCACACGU
Kd: 75 ± 16 nM

B16: target 1 complement block 3-8 (mixed)
RNA 1: CACCCGUGCAAAAAUGCAGGGGUCUAAAACUGAGCGGAUAACCUCUCUAUGG
RNA 2: GGGAAUGGAUCCACAUCUACGAAUUCGUACCAUAGAGAGGUUAAGGCGACACCGAGAUCGGAAGAGCACACGU
Kd: 9.9 ± 0.4 nM

B17: target 1 G13U,C21U (mixed)
RNA 1: CACCCGUGCAAAAAUGCAGGGGUCUAAAACUGAGCGGAUAACCUCUCUAUGG
RNA 2: GGGAAUGGAUCCACAUCUACGAAUUCGUACUAUAGAGAUGUUAUCCGCUCACCGAGAUCGGAAGAGCACACGU
Kd: 10.5 ± 0.9 nM

B18: target 1 U8G,A18G (mixed)
RNA 1: CACCCGUGCAAAAAUGCAGGGGUCUAAAACUGAGCGGAUAACCUCUCUAUGG
RNA 2: GGGAAUGGAUCCACAUCUACGAAUUCGUACCAUGGAGAGGUUAGCCGCUCACCGAGAUCGGAAGAGCACACGU
Kd: 66 ± 21 nM

B19: target 1 insU 3' of 14,insC 3' of 1 (mixed)
RNA 1: CACCCGUGCAAAAAUGCAGGGGUCUAAAACUGAGCGGAUAACCUCUCUAUGG
RNA 2: GGGAAUGGAUCCACAUCUACGAAUUCGUACCAUAGAGAUGGUUAUCCGCUCACCCGAGAUCGGAAGAGCACACGU
Kd: 42 ± 7 nM

B20: target 1 insA 3' of 15,insC 3' of 9 (mixed)
RNA 1: CACCCGUGCAAAAAUGCAGGGGUCUAAAACUGAGCGGAUAACCUCUCUAUGG
RNA 2: GGGAAUGGAUCCACAUCUACGAAUUCGUACCAUAGAGAAGGUUACUCCGCUCACCGAGAUCGGAAGAGCACACGU
Kd: 9 ± 0.9 nM

B21: target 1 insG 3' of 11,insC 3' of 3 (mixed)
RNA 1: CACCCGUGCAAAAAUGCAGGGGUCUAAAACUGAGCGGAUAACCUCUCUAUGG
RNA 2: GGGAAUGGAUCCACAUCUACGAAUUCGUACCAUAGAGAGGUGUAUCCGCUCCACCGAGAUCGGAAGAGCACACGU
Kd: 51 ± 8 nM

B22: target 1 insU 3' of 14,insG 3' of 1 (mixed)
RNA 1: CACCCGUGCAAAAAUGCAGGGGUCUAAAACUGAGCGGAUAACCUCUCUAUGG
RNA 2: GGGAAUGGAUCCACAUCUACGAAUUCGUACCAUAGAGAUGGUUAUCCGCUCAGCCGAGAUCGGAAGAGCACACGU
Kd: 45 ± 4 nM

B23: target 1 U3A,U11A (mixed)
RNA 1: CACCCGUGCAAAAAUGCAGGGGUCUAAAACUGAGCGGAUAACCUCUCUAUGG
RNA 2: GGGAAUGGAUCCACAUCUACGAAUUCGUACCAUAGAGAGGAUAUCCGCACACCGAGAUCGGAAGAGCACACGU
Kd: 12.7 ± 0.7 nM

B24: target 1 insU 3' of 18,insU 3' of 15 (mixed)
RNA 1: CACCCGUGCAAAAAUGCAGGGGUCUAAAACUGAGCGGAUAACCUCUCUAUGG
RNA 2: GGGAAUGGAUCCACAUCUACGAAUUCGUACCAUAUGAGUAGGUUAUCCGCUCACCGAGAUCGGAAGAGCACACGU
Kd: 50 ± 12 nM

B25: target 1 C7A,U11A (mixed)
RNA 1: CACCCGUGCAAAAAUGCAGGGGUCUAAAACUGAGCGGAUAACCUCUCUAUGG
RNA 2: GGGAAUGGAUCCACAUCUACGAAUUCGUACCAUAGAGAGGAUAUACGCUCACCGAGAUCGGAAGAGCACACGU
Kd: 17.9 ± 1.3 nM

B26: target 1 insC 3' of 20,insA 3' of 5 (mixed)
RNA 1: CACCCGUGCAAAAAUGCAGGGGUCUAAAACUGAGCGGAUAACCUCUCUAUGG
RNA 2: GGGAAUGGAUCCACAUCUACGAAUUCGUACCACUAGAGAGGUUAUCCGACUCACCGAGAUCGGAAGAGCACACGU
Kd: 7.3 ± 1.1 nM

B27: target 1 U10G,A20U (mixed)
RNA 1: CACCCGUGCAAAAAUGCAGGGGUCUAAAACUGAGCGGAUAACCUCUCUAUGG
RNA 2: GGGAAUGGAUCCACAUCUACGAAUUCGUACCUUAGAGAGGUGAUCCGCUCACCGAGAUCGGAAGAGCACACGU
Kd: 60 ± 18 nM

B28: target 1 insG 3' of 19,insA 3' of 8 (mixed)
RNA 1: CACCCGUGCAAAAAUGCAGGGGUCUAAAACUGAGCGGAUAACCUCUCUAUGG
RNA 2: GGGAAUGGAUCCACAUCUACGAAUUCGUACCAUGAGAGAGGUUAUACCGCUCACCGAGAUCGGAAGAGCACACGU
Kd: 57 ± 7 nM
